Broadly, the Kd is the concentration at which binding is half-saturated. Low readings indicate higher affinity, high ones lower affinity.

B1: mature Human IL-34 (ligand)
chain: NEPLEMWPLTQNEECTVTGFLRDKLQYRSRLQYMKHYFPINYKISVPYEGVFRIANVTRLQRAQVSERELRYLWVLVSLSATESVQDVLLEGHPSWKYLQEVETLLLNVQQGLTDVEVSPKVESVLSLLNAPGPNLKLVRPKALLDNCFRVMELLYCSCCKQSSVLNWQDCEVPSPQSCSPEPSLQYAATQLYPPPPWSPSSPPHSTGSVRPVRAQGEGLLP
notes: if the entry is the precursor, residues 21-242 apply; NCBI NP_689669.2 is printed; also called hIL-34; h IL-34

In test [1] the target is T1, Human CSF1R Fc fusion protein (Exemplified compound D) (human, UniProt P07333 20-512, limits assumed).
T1 construct: Made in house and purified by MabSelect SuRe and size exclusion; also called hCSF1R-Fc; Exemplified compound D (hCSF1R-Fc); not shown: Fc part
T1 sequence (P07333 20-512 limits assumed): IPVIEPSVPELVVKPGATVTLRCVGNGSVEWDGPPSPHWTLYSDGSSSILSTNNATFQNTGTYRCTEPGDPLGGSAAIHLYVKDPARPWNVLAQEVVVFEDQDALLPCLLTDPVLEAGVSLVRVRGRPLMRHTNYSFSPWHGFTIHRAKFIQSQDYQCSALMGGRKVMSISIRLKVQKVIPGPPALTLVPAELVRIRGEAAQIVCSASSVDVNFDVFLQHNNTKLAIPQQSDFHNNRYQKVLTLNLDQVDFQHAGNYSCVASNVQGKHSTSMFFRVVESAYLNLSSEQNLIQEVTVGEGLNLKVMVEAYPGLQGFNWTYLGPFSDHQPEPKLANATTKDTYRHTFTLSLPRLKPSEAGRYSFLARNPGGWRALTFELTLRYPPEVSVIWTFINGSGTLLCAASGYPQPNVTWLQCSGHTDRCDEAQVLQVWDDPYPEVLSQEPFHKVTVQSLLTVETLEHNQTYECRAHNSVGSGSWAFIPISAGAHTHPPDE
As to the kind of experiment: MSD solution equilibrium titration at 37 C; fixed Fc fusion, IL-34 titrated, free protein captured on IL-34-coated plate; mean ± STDEV, n = 5.

For test [2], the target named is T2, Cyno IL-34 (cyno (cynomolgus monkey), UniProt G7Q1L3 21-242).
T2 sequence: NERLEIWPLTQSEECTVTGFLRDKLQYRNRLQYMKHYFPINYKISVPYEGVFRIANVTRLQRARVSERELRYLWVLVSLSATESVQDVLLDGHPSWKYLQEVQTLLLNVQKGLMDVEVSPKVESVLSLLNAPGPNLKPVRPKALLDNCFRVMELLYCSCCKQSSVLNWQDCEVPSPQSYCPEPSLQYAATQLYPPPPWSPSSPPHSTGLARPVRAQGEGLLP
As to the kind of experiment: cell-based or functional assay.

Test [3] addresses B1. As to the kind of experiment: cell-based or functional assay.
The target of test [4] is B1. The experiment in a line: MSD solution equilibrium titration at 37 C; fixed antibody, IL-34 titrated, free antibody captured on IL-34-coated plate; mean ± STDEV, n = 5. Here is the method:
(§1) Briefly, usually a 2-fold or 3-fold dilution series of human, cyno or mouse IL-34 is prepared from a starting concentration of 40, or 50 or 60 or 80 or 100 or 120 nM to 100 fM; and each series includes an IL-34 blank control. Samples are prepared in 3% (w/v) Blocker A solution (MSD®, #R93AA-1) and a fixed final concentration of 5-50 pM of each exemplified antibody in Table 1 is added to each sample. An antibody only control is included. A volume of 50 μl of each protein-antibody sample is added to individual wells of a 96-well microtiter plate (Greiner, EK-20101). The plate is sealed with optical adhesive film (Thermo Fisher Scientific, #4311971) and incubated at 37° C. for 1-3 days to allow for sample equilibrium. On the day before analysis, each row of a 96-well MSD® Standard plate (MSD®, #L15XA) is coated with 30 μl of the corresponding IL-34 (as used in the titration series) at a concentration of 1 μg/ml in phosphate buffered saline (PBS). […] The plate is washed three more times with PBST followed by the addition of 150 μl/well of 1× Read buffer (MSD®, #R92TC-2). The MSD® Standard plate is read using a MESO Quickplex SQ 120/1300 instrument (Meso Scale Discovery).

The target in test [5] is B1. As to the kind of experiment: cell-based or functional assay. The source holds these as a separate data set.
The target of test [6] is T2, Cyno IL-34. As to the kind of experiment: MSD solution equilibrium titration at 37 C; fixed antibody, cyno IL-34 titrated; mean ± STDEV, n = 5. As for the experimental part: as §1
For test [7], the target named is IL-34 (species not stated). As to the kind of experiment: cell-based or functional assay.
A further test concerns the target T3, Mouse IL-34 (mouse, UniProt Q8R1R4 21-235).
T3 construct: NCBI NP_001128572.1 is printed; also called Murine IL-34
T3 sequence: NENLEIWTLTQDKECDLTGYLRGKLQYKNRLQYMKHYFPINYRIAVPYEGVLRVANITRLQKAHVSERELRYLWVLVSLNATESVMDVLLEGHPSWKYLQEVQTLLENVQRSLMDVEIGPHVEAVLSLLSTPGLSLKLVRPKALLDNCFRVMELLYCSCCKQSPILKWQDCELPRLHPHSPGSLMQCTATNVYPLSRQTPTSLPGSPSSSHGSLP
As to the kind of experiment: MSD solution equilibrium titration at 37 C; fixed antibody, mouse IL-34 titrated. Here is the method: as §1

For the molecule B1, in test [1], the Kd is 0.056 nM.

B2: Antibody 1 (antibody, human IgG4 S228P, kappa, F234A L235A, V domains shown)
VH: EVQLLESGGGLVQPGGSLRLSCAASGFTFSSYATSWVRQAPGKGLEWVSAISHSGRSTYYADSVKGRFTISRDNSKNTLYLQMNSLRAEDTAVYYCARGRSSLDTWGQGTLVTVSS
VL: EIVLTQSPGTLSLSPGERATLSCRASQSISSAYLAWYQQKPGQAPRLLIYASSIRPTGIPDRFSGSGSGTDFTLTISPLEPEDFAVYYCSQYGDSLSFGGGTKVEIKR
notes: Human anti-human IL-34 antibody with a modified IgG4 (IgG4PAA) heavy chain and kappa light chain; also called Exemplified Antibody 1
For B2, in the test with Cyno IL-34 [2], the “IC50; neutralization of cyno IL-34 induced luciferase reporter activity, hCSF1R 293 SRE cells” value came out at 0.654 nM. Also, in the test with mature Human IL-34 [3], the “IC50; neutralization of human IL-34 induced luciferase reporter activity, hCSF1R 293 SRE cells” value was determined as 0.385 nM. Also, the results for the Kd in the test with mature Human IL-34 [4] and in the test with Cyno IL-34 [6] were 0.059 nM and 0.108 nM, respectively. The “IC50; inhibition of human IL-34 induced CSF1R dimerization, PathHunter eXpress assay” value with mature Human IL-34 [5] was 0.226 nM.

B3: Antibody 3 (antibody, mouse IgG1, kappa, V domains shown)
VH: EVQLLESGGGLVQPGGSLRLSCAASGFTFSYYAMSWVRQAPGKGLEWVSAISHRGGSTLYADSVKGRFTISRDNSKNTLYLQMNSLRAEDTAVYYCARGRSSLDGWGQGTMVTVSS
VL: EIVLTQSPGILSLSPGERASLSCRASTSVSSAYLAWYQQKPGQAPRLLIYASSHRPLGIPDRFSGSGSGTDFTLTISRLEPEDFAVYYCQQYGDSLSFGGGTKVEIKR
notes: Antibody optimised against mouse IL-34; The printed constant regions look murine, and a mIgG1 control is used in vivo; also called Exemplified Antibody 3
B3: the “IC50; inhibition of IL-34 induced ERK phosphorylation in NIH-3T3/CSF1R cells” value in test [7] was found to be 15.7 nM. Also, the Kd with Mouse IL-34 worked out at 0.016 nM.

B4: Antibody 2 (antibody, human IgG4 S228P, kappa, F234A L235A, V domains shown)
VH: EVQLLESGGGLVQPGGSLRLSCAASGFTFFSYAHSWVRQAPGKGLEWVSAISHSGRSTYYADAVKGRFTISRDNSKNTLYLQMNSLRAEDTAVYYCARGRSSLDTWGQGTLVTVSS
VL: EIVLTQSPGTLSLSPGERATLSCRASQSISSAYLAWYQQKPGQAPRLLIYASSIRPTGIPDRFSGSGSGTDFTLTISPLEPEDFAVYYCSQYGDSLSFGGGTKVEIKR
notes: Shares its light chain with Antibody 1; Modified IgG4 heavy chain; also called Exemplified Antibody 2
Regarding B4, the Kd with mature Human IL-34 [4] came out at 0.054 nM; in the test with Cyno IL-34 [6], 0.152 nM.

Source of the values: patent US20210363232A1 (Eli Lilly, published 2021).
